Experimental data as given in the supplement of paper PMC5998384.

Key:
HeLa Kyoto [1] = assay: melting temperature (median over replicates), in situ; higher = more thermally stable
HeLa Kyoto [2] = assay: thermal stability score vs G1/S (z-score of summed log2 fold changes over temperatures); higher = more thermally stable than in G1/S
HeLa Kyoto [3] = assay: solubility in G1/S (NP-40 vs SDS abundance) (log2 ratio); higher = more soluble; conditions: cell cycle stage: G1/S
HeLa Kyoto [4] = assay: solubility change mitosis vs G1/S (difference of NP-40 vs SDS log2 ratios) (log2 ratio difference); higher = more soluble in mitosis
[5] = cell cycle stage: early G1 (4.5 h after nocodazole release)
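For melting temperature (median over replicates), in situ in this document: HeLa Kyoto cells synchronized by double thymidine or nocodazole block, proteins quantified by TMT10plex mass spectrometry, three independent biological replicates.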
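For solubility change mitosis vs G1/S (difference of NP-40 vs SDS log2 ratios) in this document: synchronized HeLa Kyoto cells (double thymidine block for G1/S, nocodazole release for mitosis), protein amounts in NP-40 versus SDS lysates quantified by mass spectrometry, three biological replicates.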
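For solubility in G1/S (NP-40 vs SDS abundance) in this document: HeLa Kyoto cells arrested at G1/S by double thymidine block, proteins quantified by TMT10plex mass spectrometry in mild NP-40 versus SDS extracts, three biological replicates.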
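For thermal stability score vs G1/S (z-score of summed log2 fold changes over temperatures) in this document: synchronized HeLa Kyoto cells, proteins quantified by TMT10plex mass spectrometry, three biological replicates, mitosis taken 0.5 h after nocodazole release, G1/S directly after double thymidine block.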

Chain of PUDP (chain, as listed by the source): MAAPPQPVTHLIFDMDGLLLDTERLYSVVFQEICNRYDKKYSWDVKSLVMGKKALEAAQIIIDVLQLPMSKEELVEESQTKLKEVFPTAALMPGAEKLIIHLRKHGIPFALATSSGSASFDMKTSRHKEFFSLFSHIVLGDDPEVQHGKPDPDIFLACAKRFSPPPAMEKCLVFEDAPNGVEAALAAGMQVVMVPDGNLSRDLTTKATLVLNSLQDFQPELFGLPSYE

Substance	melting temperature (HeLa Kyoto [1]; cell cycle stage: G1/S) [°C]	melting temperature (HeLa Kyoto [1]; cell cycle stage: mitosis) [°C]	thermal stability score (HeLa Kyoto [2]; [5])	thermal stability score (HeLa Kyoto [2]; cell cycle stage: mitosis)	solubility in G1/S (log2) (HeLa Kyoto [3])	solubility change mitosis (log2) (HeLa Kyoto [4])
MAFPPRRRLRLGPRGLPLLLSGLLLPLCRAFNLDVDSPAEYSGPEGSYFGFAVDFFVPSASSRMFLLVGAPKANTTQPGIVEGGQVLKCDWSSTRRCQPIEFDATGNRDYAKDDPLEFKSHQWFGASVRSKQDKILACAPLYHWRTEMKQEREPVGTCFLQDGTKTVEYAPCRSQDIDADGQGFCQGGFSIDFTKADRVLLGGPGSFYWQGQLISDQVAEIVSKYDPNVYSIKYNNQLATRTAQAIFDDSYLGYSVAVGDFNGDGIDDFVSGVPRAARTLGMVYIYDGKNMSSLYNFTGEQMAAYFGFSVAATDINGDDYADVFIGAPLFMDRGSDGKLQEVGQVSVSLQRASGDFQTTKLNGFEVFARFGSAIAPLGDLDQDGFNDIAIAAPYGGEDKKGIVYIFNGRSTGLNAVPSQILEGQWAARSMPPSFGYSMKGATDIDKNGYPDLIVGAFGVDRAILYRARPVITVNAGLEVYPSILNQDNKTCSLPGTALKVSCFNVRFCLKADGKGVLPRKLNFQVELLLDKLKQKGAIRRALFLYSRSPSHSKNMTISRGGLMQCEELIAYLRDESEFRDKLTPITIFMEYRLDYRTAADTTGLQPILNQFTPANISRQAHILLDCGEDNVCKPKLEVSVDSDQKKIYIGDDNPLTLIVKAQNQGEGAYEAELIVSIPLQADFIGVVRNNEALARLSCAFKTENQTRQVVCDLGNPMKAGTQLLAGLRFSVHQQSEMDTSVKFDLQIQSSNLFDKVSPVVSHKVDLAVLAAVEIRGVSSPDHVFLPIPNWEHKENPETEEDVGPVVQHIYELRNNGPSSFSKAMLHLQWPYKYNNNTLLYILHYDIDGPMNCTSDMEINPLRIKISSLQTTEKNDTVAGQGERDHLITKRDLALSEGDIHTLGCGVAQCLKIVCQVGRLDRGKSAILYVKSLLWTETFMNKENQNHSYSLKSSASFNVIEFPYKNLPIEDITNSTLVTTNVTWGIQPAPMPVPVWVIILAVLAGLLLLAVLVFVMYRMGFFKRVRPPQEEQEREQLQPHENGEGNSET [ITGAV]	56	54.8	-1.75	-1.34	0.295	-0.152
MAKAKKVGARRKASGAPAGARGGPAKANSNPFEVKVNRQKFQILGRKTRHDVGLPGVSRARALRKRTQTLLKEYKERDKSNVFRDKRFGEYNSNMSPEEKMMKRFALEQQRHHEKKSIYNLNEDEELTHYGQSLADIEKHNDIVDSDSDAEDRGTLSAELTAAHFGGGGGLLHKKTQQEGEEREKPKSRKELIEELIAKSKQEKRERQAQREDALELTEKLDQDWKEIQTLLSHKTPKSENRDKKEKPKPDAYDMMVRELGFEMKAQPSNRMKTEAELAKEEQEHLRKLEAERLRRMLGKDEDENVKKPKHMSADDLNDGFVLDKDDRRLLSYKDGKMNVEEDVQEEQSKEASDPESNEEEGDSSGGEDTEESDSPDSHLDLESNVESEEENEKPAKEQRQTPGKGLISGKERAGKATRDELPYTFAAPESYEELRSLLLGRSMEEQLLVVERIQKCNHPSLAEGNKAKLEKLFGFLLEYVGDLATDDPPDLTVIDKLVVHLYHLCQMFPESASDAIKFVLRDAMHEMEEMIETKGRAALPGLDVLIYLKITGLLFPTSDFWHPVVTPALVCLSQLLTKCPILSLQDVVKGLFVCCLFLEYVALSQRFIPELINFLLGILYIATPNKASQGSTLVHPFRALGKNSELLVVSAREDVATWQQSSLSLRWASRLRAPTSTEANHIRLSCLAVGLALLKRCVLMYGSLPSFHAIMGPLQALLTDHLADCSHPQELQELCQSTLTEMESQKQLCRPLTCEKSKPVPLKLFTPRLVKVLEFGRKQGSSKEEQERKRLIHKHKREFKGAVREIRKDNQFLARMQLSEIMERDAERKRKVKQLFNSLATQEGEWKALKRKKFKK [NOP14]	49.2	50.4	0.586	1.66	-1.66	0.737
MSEAPRFFVGPEDTEINPGNYRHFFHHADEDDEEEDDSPPERQIVVGICSMAKKSKSKPMKEILERISLFKYITVVVFEEEVILNEPVENWPLCDCLISFHSKGFPLDKAVAYAKLRNPFVINDLNMQYLIQDRREVYSILQAEGILLPRYAILNRDPNNPKECNLIEGEDHVEVNGEVFQKPFVEKPVSAEDHNVYIYYPTSAGGGSQRLFRKIGSRSSVYSPESNVRKTGSYIYEEFMPTDGTDVKVYTVGPDYAHAEARKSPALDGKVERDSEGKEVRYPVILNAREKLIAWKVCLAFKQTVCGFDLLRANGQSYVCDVNGFSFVKNSMKYYDDCAKILGNIVMRELAPQFHIPWSIPLEAEDIPIVPTTSGTMMELRCVIAVIRHGDRTPKQKMKMEVRHQKFFDLFEKCDGYKSGKLKLKKPKQLQEVLDIARQLLMELGQNNDSEIEENKPKLEQLKTVLEMYGHFSGINRKVQLTYLPHGCPKTSSEEEDSRREEPSLLLVLKWGGELTPAGRVQAEELGRAFRCMYPGGQGDYAGFPGCGLLRLHSTYRHDLKIYASDEGRVQMTAAAFAKGLLALEGELTPILVQMVKSANMNGLLDSDSDSLSSCQQRVKARLHEILQKDRDFTAEDYEKLTPSGSISLIKSMHLIKNPVKTCDKVYSLIQSLTSQIRHRMEDPKSSDIQLYHSETLELMLRRWSKLEKDFKTKNGRYDISKIPDIYDCIKYDVQHNGSLKLENTMELYRLSKALADIVIPQEYGITKAEKLEIAKGYCTPLVRKIRSDLQRTQDDDTVNKLHPVYSRGVLSPERHVRTRLYFTSESHVHSLLSILRYGALCNESKDEQWKRAMDYLNVVNELNYMTQIVIMLYEDPNKDLSSEERFHVELHFSPGAKGCEEDKNLPSGYGYRPASRENEGRRPFKIDNDDEPHTSKRDEVDRAVILFKPMVSEPIHIHRKSPLPRSRKTATNDEESPLSVSSPEGTGTWLHYTSGVGTGRRRRRSGEQITSSPVSPKSLAFTSSIFGSWQQVVSENANYLRTPRTLVEQKQNPTVGSHCAGLFSTSVLGGSSSAPNLQDYARTHRKKLTSSGCIDDATRGSAVKRFSISFARHPTNGFELYSMVPSICPLETLHNALSLKQVDEFLASIASPSSDVPRKTAEISSTALRSSPIMRKKVSLNTYTPAKILPTPPATLKSTKASSKPATSGPSSAVVPNTSSRKKNITSKTETHEHKKNTGKKK [PPIP5K2]	52.5	52.6	0.0139	0.108	0.0594	-0.068
FAM136A	52.9	53.3	-3.91	-5.74	0.101	0.0886
METQLSNGPTCNNTANGPTTINNNCSSPVDSGNTEDSKTNLIVNYLPQNMTQEELKSLFGSIGEIESCKLVRDKITGQSLGYGFVNYIDPKDAEKAINTLNGLRLQTKTIKVSYARPSSASIRDANLYVSGLPKTMTQKELEQLFSQYGRIITSRILVDQVTGISRGVGFIRFDKRIEAEEAIKGLNGQKPPGATEPITVKFANNPSQKTNQAILSQLYQSPNRRYPGPLAQQAQRFRLDNLLNMAYGVKRFSPMTIDGMTSLAGINIPGHPGTGWCIFVYNLAPDADESILWQMFGPFGAVTNVKVIRDFNTNKCKGFGFVTMTNYDEAAMAIASLNGYRLGDRVLQVSFKTNKTHKA [ELAVL2]	52.6	52.2	-0.26	-1.01	0.208	-0.0286
MAQEVSEYLSQNPRVAAWVEALRCDGETDKHWRHRRDFLLRNAGDLAPAGGAASASTDEAADAESGTRNRQLQQLISFSMAWANHVFLGCRYPQKVMDKILSMAEGIKVTDAPTYTTRDELVAKVKKRGISSSNEGVEEPSKKRVIEGKNSSAVEQDHAKTSAKTERASAQQENSSTCIGSAIKSESGNSARSSGISSQNSSTSDGDRSVSSQSSSSVSSQVTTAGSGKASEAEAPDKHGSASFVSLLKSSVNSHMTQSTDSRQQSGSPKKSALEGSSASASQSSSEIEVPLLGSSGSSEVELPLLSSKPSSETASSGLTSKTSSEASVSSSVAKNSSSSGTSLLTPKSSSSTNTSLLTSKSTSQVAASLLASKSSSQTSGSLVSKSTSLASVSQLASKSSSQTSTSQLPSKSTSQSSESSVKFSCKLTNEDVKQKQPFFNRLYKTVAWKLVAVGGFSPNVNHGELLNAAIEALKATLDVFFVPLKELADLPQNKSSQESIVCELRCKSVYLGTGCGKSKENAKAVASREALKLFLKKKVVVKICKRKYRGSEIEDLVLLDEESRPVNLPPALKHPQELL [CDKN2AIP]	50.2	50.8	1.13	1.43	-0.0572	-0.0367
MAMLVLVPGRVMRPLGGQLWRFLPRGLEFWGPAEGTARVLLRQFCARQAEAWRASGRPGYCLGTRPLSTARPPPPWSQKGPGDSTRPSKPGPVSWKSLAITFAIGGALLAGMKHVKKEKAEKLEKERQRHIGKPLLGGPFSLTTHTGERKTDKDYLGQWLLIYFGFTHCPDVCPEELEKMIQVVDEIDSITTLPDLTPLFISIDPERDTKEAIANYVKEFSPKLVGLTGTREEVDQVARAYRVYYSPGPKDEDEDYIVDHTIIMYLIGPDGEFLDYFGQNKRKGEIAASIATHMRPYRKKS [SCO1]	49.8	51.2	2.42	1.59	0.47	-0.107
SUMF2	52.9	54.7	4.15	3.23	0.289	0.00354
PUDP	54.5	55.5	1.26	0.384	0.454	-0.0216
